Results published in publication PMC6689074, “In vivo Hox binding specificity revealed by systematic changes to a single cis regulatory module”.
Numbering of substitutions follows the chain as printed.

B1: main class 1 + overlapping high-affinity class 3 oligo (dsDNA)
DNA 1: ACGGGATTTGATTGATTTATTAGAATTCGGCGACGAACGAAAGC
DNA 2: GCTTTCGTTCGTCGCCGAATTCTAATAAATCAATCAAATCCCGT
B2: mutant main + high-affinity overlapping class 3 oligo (dsDNA)
DNA 1: B1 DNA 1 with T8A, T9C
DNA 2: B1 DNA 2 with A36G, A37T

How the values were obtained:
[1] = target: T1, Ultrabithorax isoform IVa (UbxIVa);Extradenticle (Exd);Homothorax HM domain (HthHM) (Drosophila melanogaster?;Drosophila …, UniProt P83949-5;P40427;O46339 1-346;1-376;1-211, ||); assay: EMSA; increased with high-affinity overlapping site; EMSA: 6 nM 32P dsDNA probe, 200 nM Exd-HM, 30-180 nM Hox; 4% polyacrylamide gel, 120 V, 2.5 h, 4 C; buffer, salt and pH not given in material; conditions: protein: recombinant;recombinant;recombinant; tags: His (pET21b);none (pET9a);His (pET21b); copies: 1;1;1; label: 32P
[2] = target: T1, Ultrabithorax isoform IVa …; assay: EMSA; strong binding; EMSA: 6 nM 32P dsDNA probe, 200 nM Exd-HM, 30-180 nM Hox; 4% polyacrylamide gel, 120 V, 2.5 h, 4 C; buffer, salt and pH not given in material; conditions: protein: recombinant;recombinant;recombinant; tags: His (pET21b);none (pET9a);His (pET21b); copies: 1;1;1; label: 32P

T1 sequence (P83949 other isoform, or with tags, fused parts or gaps ||, chain 1 of 3): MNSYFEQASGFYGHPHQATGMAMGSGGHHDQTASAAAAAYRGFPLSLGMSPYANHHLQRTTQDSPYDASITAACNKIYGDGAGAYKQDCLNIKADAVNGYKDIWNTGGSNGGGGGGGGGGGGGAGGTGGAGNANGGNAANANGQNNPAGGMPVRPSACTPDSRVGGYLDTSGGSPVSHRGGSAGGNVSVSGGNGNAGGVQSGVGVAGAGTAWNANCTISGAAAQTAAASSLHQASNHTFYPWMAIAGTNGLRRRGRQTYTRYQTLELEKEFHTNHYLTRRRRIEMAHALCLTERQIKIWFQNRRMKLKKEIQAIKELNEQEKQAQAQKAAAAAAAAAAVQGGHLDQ
T1 sequence (P40427 whole entry, chain 2 of 3, the tested form may be a part, canonical isoform): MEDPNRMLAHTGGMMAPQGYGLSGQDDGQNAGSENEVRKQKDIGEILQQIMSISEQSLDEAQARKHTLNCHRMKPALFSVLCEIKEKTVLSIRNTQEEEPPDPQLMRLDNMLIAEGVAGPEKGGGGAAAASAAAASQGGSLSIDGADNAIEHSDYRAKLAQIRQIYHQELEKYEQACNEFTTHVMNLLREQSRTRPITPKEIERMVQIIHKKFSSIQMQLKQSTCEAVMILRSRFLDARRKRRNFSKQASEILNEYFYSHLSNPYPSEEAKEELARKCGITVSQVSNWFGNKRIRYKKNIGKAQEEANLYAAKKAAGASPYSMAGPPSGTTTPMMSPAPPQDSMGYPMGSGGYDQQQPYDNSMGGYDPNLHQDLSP
T1 sequence (O46339 1-211, chain 3 of 3): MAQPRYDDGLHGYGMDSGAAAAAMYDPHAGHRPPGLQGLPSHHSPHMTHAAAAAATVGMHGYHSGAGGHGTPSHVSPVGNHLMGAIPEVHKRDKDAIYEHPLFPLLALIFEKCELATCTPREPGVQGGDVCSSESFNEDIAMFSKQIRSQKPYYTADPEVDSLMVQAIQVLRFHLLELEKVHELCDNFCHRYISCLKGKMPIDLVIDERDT

Row | Binder | binding result [1] | binding result [2]
1 | B1 | binds | –
2 | B2 | – | binds
